Measurements: the nanobody polyreactivity screen of Harvey et al. (2022)

Assay: yeast display, Sf9 membrane polyspecificity reagent, FACS + sequencing; frameworks hold sequencing errors
Summary of the method: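 Genes from sorted yeast were amplified by colony PCR, read by MiSeq 2 × 250 sequencing and filtered on CDR length. These cells carried a synthetic nanobody library in Saccharomyces cerevisiae BJ5465 and were sorted by FACS into low and high (top ~1%) gates on anti-HA and streptavidin fluorescence. Polyreactivity is labelled according to the gate of origin.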

| Sequence | polyreactivity (PSR sort gate) |
| --- | --- |
| QVQLVESGGGLVQAGGSLRLSCAASGSTFQVNAMGWYRQAPGQDRELVAAITYRTGRTYYADSVKGRCTISRDNAKNTGYLQMNSLKPEDTAVYYCAATAHSYYGVGMGYWGQGTQVTVSS | high polyreactivity |
| QVQLVESGGGLVQAGGSLRLSCAASGRTFRGYAMGWYRQAPGKERELVAAISVTGSSTNYADSVKGRFTISRDNAKNTVYLQMNSLKPEDTAVYYCNAKRVRYSLSYDYWGQGTQVTVSS | high polyreactivity |
| QVQLVESGGGLVQAGGSLRLSCATSGFTLLKNAMGWYRQAPGKERELVAAIRQRGTTTYYADSVKGRFTISRDNAKNTVYLQMNSLKPEDTAVYSCNAGRRTGRYGYWGQGTQVTVSS | high polyreactivity |
| QDQLVESGGGLVQAGGSLRLSCASSGYIFYYNAMGWYRQAPGKEWELVAAITGDSGTYYADSVKGRFTISRDNAKNTFYFQMNCLKPEDTAVYYCNAYTFYQYYRWYVYWGQVTQVTVSS | low polyreactivity |
| QVQLVESGGGLVQAGGSLRLSCAASGSIFNTYVMGWYRQAPGKERELVAAITYSAGGDTYYADSVKGRFTISRDNAKNTVYLQMNSLKPEDTAVYYCAAEYTYLDAYGSYDYWGQGTQVTVSS | low polyreactivity |
| QVQHVESGGGLVQAGGSLRLSCAASGGTFVWYAMGWYRQAPGKERELVAAISSSGGRTYYADSVKGRFTISRDNAKNTVYLQMNSLKPEDTAVYYCNAAPYYVLYLLWSSNTYDYWGQGTQVTVSS | high polyreactivity |
| QFQLVESGGCLVQAGGSLRLSCAASGFIFLQYAMGWYRQAPGKETELGAAITSGGGTNYEDSVKGRFTISRDNAKNTVYLPMNSLKPEDTAGYNCAARTWPWVLGATQDDYWGQGTQVTVSS | low polyreactivity |
| QVQLVESGGGLVQAGGSLRLSCAASGSIFRFYVMGWYRPAPGKERELVAAISIGGSTNYADSVKGRFTISRDNAKNTVYLQMNSLKPEDTAVYYCAADYWYGAVLPHGTEFDYWGQGTQVTVSS | low polyreactivity |
| QVQLVESGGGLVQAGGSLRLICAASGRIFFIYAMGWYRQAPGKERELVAGINRTGGSTYYADSVKGRFTISRDNAKNSVYLHMNSLKPEDTAVYYCAAVSYYASDYRYDYWGKGTQVTVSS | low polyreactivity |
| QVQLVESGGGLVQAGGSLRLSCAASGRIYGAYAMGWYRQAPGKEMEMVAAITSAGSTLYADSVKGRFTISRDNAMNTVYLQMNSLNPEDTAVYYCAADGIARAYVLFDAYDFLYDYWGQGTQVTVSS | low polyreactivity |
| QVQLVESGGGLVQAGGSLRLSCAASGFIFTKYTMGWYRQAPGKERELVAAIRSDGVRTYYADSVKGRFTISRDNAKNTVYLQMNSLKPEDTAVYYCNRVSAVRIGAGDYWGQGTQVTVSS | high polyreactivity |
| QVQLVESGGGLVQAGGSLRLSCAASGRPFSSYAMGWYRQAPGKERELVARINSDGGRTYYADSVKGRFTISRDNAKDTVYLQMNSLKPEDTAVYYCAKRVVRGKVDYWGQGTQVTVSS | low polyreactivity |
| QVQLVESGGGLVQAGGSLRLSCAASGFTFAYNAMGWYRQAPGKERELVAAISGRGVSTYYADSVKGRFTISRDNAKNTVYLQMNSLKPEDTAVYYCAKRYRYWTTERYDYWGQGTQVTVSS | high polyreactivity |
| QVQLVESGGGLVQAGGSLRLSCAASGLPYAMGWYRQAPGKERELVAAISSSGGSTYYADSVKGRFTISRDNAKNNVYLQMNSLKPEDTAVYYCNRDIGGTSVLDDYWGQGTQVTVSS | low polyreactivity |
| QVQLVESGGGLVQAGGSLRLSCAASGRTFALYAMGWYRQAPGKERELVAAITFSGGSTSYADSVKGRFTISRDNAKYTVYLQMNSLKPEDTAVYYCAAYWYSLYYLYPYDYWGQGTQVTVSS | low polyreactivity |
| QVQLVESGGRLVQAGGSLRLSCAASGLIFRRNAMGWYRQAPGKERELVSAISRSSGSTYYADSVKGRFTISRDYAKNSVYFHMNSLKPDDTAVYYCDAGYRAGPGYGMYSWGQGTQVTVSS | high polyreactivity |
| QVQLVESGGGLVQAGGSLRLSCAASGRTFRYYTKGWSRQAPGKERELVADINTSVGSTDYADSVKGRFTISRDNAKNTVYLQMNSLKPEDTAVYYCAKVGFTYYAVDYWGQGTQVTVSS | high polyreactivity |
| QVQLVESGGGLVQAGGSLRLSCAASGSTFRYYAMGWYRQAPGKERELVAAITTSGSRTYYADSVKGRFTISRDNAKNTVYLQMNSLKPEDTAVYYCAKDGWRYSQSLDWYRFGYWGQGTQVTVSS | high polyreactivity |
| QVQLVESGGGLVQAGGSLRLSCAASGGTFPYYAMGWYRQAPGKERELVAAITWDGGSTYYADSVKGRFTISRDNAKNTVYLQMNSLKPDATAVYYCNVRYYRYISRYDYWVQGTQVTVSS | high polyreactivity |
| QVQLVESGGGLVQAGGSLRLSCAASGYIFYGYVMGWYRQAPGKERELVAGITYSGGGGTHYADSVKGRFTISRDNAKNTVYLQMNSLKPEDNAVYYCAKADPQLNRTYYSYGMDYWGQGTQVTVSS | low polyreactivity |
| QVQLVESGGGLVQAGGRLRLSCAASGITFFWNAMGWYRQAPGKERELVAAISSGAGTTYADSVKGRFTISRDNAKNTVYLQMNSLKPEDTAVYYCAKRVDAYGWWGRSSGVLSDYWGQGTQVTVSS | low polyreactivity |
| QVELQVSGGGLVRAGGSLRLSCAASGNIFDADIMGWYRQAPGKERELVASITGGGSTSYAESAKGRFTISRDNAKNAVYLQMKSLKPEDTAVYYCARDSWWYHHYDYWGQGTQVTVSS | low polyreactivity |

| Sequence | polyreactivity (PSR sort gate) |
| --- | --- |
| QVQLVESGGGLVQAGGSHRLSCAASGIIFWYNAMGWYRQAPGKERELVAAISRGGGNTYADSVKGRFTISRDNAKNTVYLQMKSLKPEDTAVYYCAAKRSGYRFNTRWFRLPKYDYWGQGTQVTVSS | low polyreactivity |
| QVQLVESGGGLVQAGGSLRLTCAASGNIYLYYAMGWYRQAPGKERELVADIDSSGASTYYADSVKGRFTSSRDNAKNTVYLQMNSLKAEDTAVYYCAAEFHWWYAGYDYGYWGQGTQVTVSS | low polyreactivity |
| QVQLVESGGVLVQAGGSLRLSCAASGRIFRYNTMGWDRQAPGKERELVATITRGSSTNYADSVKGRFTISRDNAKNTVYLQMNSLKPEDTAVYYCAASVWKWHSYLGRYSYIGYDYWGQGTQVTVSS | high polyreactivity |
| PVQLVESGGGLVQAGGSLRLSCAASGRTFYKYAMGWYRQAPGKERELVAAISKSGGRTYYADSVKGRFTISRDNAKNTVYLQMNSLKPEDTAVYYCAAEPFIPDQSRYYYWGQGTQVTVSS | high polyreactivity |
| QVQLVESGGGLVQAGGSLRLSCAASGFIFRRYAMGWYRQAPGKERELVAIITSGVRTYYADSVKGRFTISRDNAKNTVYLQMNSLKPEDTAVYYCASRVKDYPEYDYWGQGTQVTVSS | low polyreactivity |
| QVQLVESGGGLVQAGGSLRLSCAASGSTFGKYAMGWYRPAPGKERELVAAITNGGRTNYADSVKGRFTISRDNAMNTVYLQMNSLKPEDTAVYYCNKARYGTDDYDYWGQGTQVTVSS | low polyreactivity |
| QVQLVESGGGLVQAGGSLRLSCAASGRTIRWNAMGWYRQAPGKERELVAAITSRGGSTYYADSVKGRFTISRDNAKNTVYLQMISLKPEDTAVSYCAKQPKPPPVTGYDYSGQGTQVTVSS | high polyreactivity |
| QVQLVESGGGLVQAGGSLRLSCAASGRTLKYNAMGWYRQAPGKERELVAAISYSGSSTYYADSVKGRFTISRDNAKNTVYLQMNSLKPEDTAVYYCNTARPTAAYDYWGQGTQVTVSS | low polyreactivity |
| QVQLVESGGGLVQAGGSLRLSCAASGSTFLDYTMGWYRQAPGKERELVAVISYRAGSTYYADSVKGRFTISRDNAKNTVYLQMNSLKPEDTAVYYCNADYYNYWLRRRYVWYESWGQGTQVTVSS | low polyreactivity |
| QVQLVESGGVLVQAGGSLRLSCAASGSTFWLYAMGWNRQAPRKERELVAAITRSGGRTNYADSVKGRFTISRDNAKNTVYLQMNSLKPEDTAVYYCAAEYLGVSYNNWAYDFWGQGTQVTVSS | low polyreactivity |
| QVQLVESGGGLVQAGGSLRLSCAASGRIFWWYAMGWYRQAPGKERELVAAISTGSRTYYADSVKGRFTISRDNAKNTVYLQMNSLKPEDTAVYYCNKDYWYGYSDFDYWGQGTQVTVSS | low polyreactivity |
| QVQLVESGGGLVQAGGSLRLSCAASGRIFSFYAMGWYRQSPGKERELVATISDGGATTYYADSVKGRFTISRDNAKNTVYLQMNSLKPEDTAVYYCAADKRGRPGLPDYDSWGQGTQVTVSS | low polyreactivity |
| QVQLVESGGGLVQAGGSLRLSCAASGFIFKSNAMGWDRQAPGKERELVAAISTSGGSTYYADSVKGRFTISRDNAKNTVYLQMNSLKPEDTAVYYCAKRPSRYYYRLDYWGQGTQVTVSS | high polyreactivity |
| QVQLVESGGGLVQAGGSLRLSCAASGNTFGINAMGWYRQAPGKERELVASISFTGSSTYYADSVKGRFTISRDNAKNTVYLQMNSLKPEDTAVYYCNRDRITLYEYDYWGQGTQVTVSS | low polyreactivity |
| QFQLVESGGGLVQAGGSLRLSCAASGRIFYYNAMGWYRQAPGKERELVASITGSGGSTYYADSVKGRFTISRDNAKNTVYLQMNSLKPEDTAVYYCAKREYLYPYYYVAKYDYWGQGTQVTVSS | low polyreactivity |
| QVQLVESGGGLVQAGGSLRLSCAASGGTFYVYAMGWYRQAPGKERELVAAISTSGGSTYYADSVKGRFTISRDNAKNTVYLQMNSLKPEDTAVYYCAARRVSFSGHPRYGYWGQGTQVTVSS | high polyreactivity |
| QVQLVESGGGLVQAGCSLRLSCAASGSTFRPYAMGWYRQAPGKERELVAAINNSGGSTYYADSVKGRFTISRDNAKNTVYLQMNSLKPEDTAVYYCAAEWYYYFIIMNYWGQGTQVTVSS | high polyreactivity |
| QVQLVESGGGLVQAGGSLRLSCAASGSTFEYYAMGWYRQAPGKERELVAAITRSGSRTRYADSVKGRFTISRDNAKNTVYLQMNSLKPEDTAVYYCARLSSARYPFDSWGQGTQVTVSS | high polyreactivity |
| QVQLVESGGGLVQAGGSLRLICAASGRTIGRNAMRWSRQAPGKERELVAAISSSGGSTYYADSVKGRFTISRDKAKNTVYLQMNSLKPEDTAVYYCNARGWYGLRKYYYWGQGTQVTVSS | high polyreactivity |
| QVQLVESGGGLVQAGGSLRLSCAASGIIYITNAMGWYRQAPGKERELVAAISSTVSTNYADSVKGRFTISRDNAKNTVYLQMNSLKPEDTAVYYCAAEWGLTQGESIYDYWGQGTQVTVSS | low polyreactivity |
| QVQLVESGGGLVQAGGSLRLSCAASGRTFNYYAMGWYRQAPGKERELVAAISWSGTPTYYADSVKGRFTISRDNAKNTVYLQMNCLKPEDTAVYYCAAYLVSYPRGNYIRYDYWGQGTQVTVSS | low polyreactivity |
